Laboratory results reported in patent publication CN114685664A (UNIV INNER MONGOLIA AGRI, dated 2022).
Values belong to the binder of their own block, whether it stands above or below them.

What was measured:
人CD20胞外区多肽 [1] = target: T1, 人CD20胞外区多肽 (human); assay: phage ELISA, CD20 extracellular peptide coated at 2.5 μg/mL, OD450
T1 construct: Synthetic 47-residue peptide of the extracellular region of human CD20 (Sangon); also called CD20多肽; CD20抗原
T1 peptide: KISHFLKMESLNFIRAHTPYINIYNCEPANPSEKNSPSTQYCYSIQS

Raji细胞表面CD20蛋白 [2] = target: T2, Raji细胞表面CD20蛋白 (human, UniProt P11836 1-297); assay: immunofluorescence on fixed Raji cells, sdAb 10 μg/mL, fluorescent anti-His detection
T2 construct: whole, on cells; Raji cells used as CD20-positive cells; also called Raji细胞表面CD20分子
T2 sequence (looked up): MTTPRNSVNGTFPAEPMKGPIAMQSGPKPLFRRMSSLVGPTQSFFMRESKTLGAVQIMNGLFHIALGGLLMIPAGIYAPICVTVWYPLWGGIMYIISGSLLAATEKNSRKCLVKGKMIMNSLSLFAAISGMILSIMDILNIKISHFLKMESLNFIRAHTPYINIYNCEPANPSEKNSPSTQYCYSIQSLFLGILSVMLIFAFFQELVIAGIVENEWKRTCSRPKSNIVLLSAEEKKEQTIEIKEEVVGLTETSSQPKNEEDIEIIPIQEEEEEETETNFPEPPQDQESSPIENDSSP

Raji细胞表面CD20蛋白 [3] = target: T2, Raji细胞表面CD20蛋白; assay: flow cytometry, FITC-labelled BsNb 100 μg/mL on Raji cells
人CD20胞外区多肽 [4] = target: T1, 人CD20胞外区多肽; assay: ELISA, CD20 extracellular peptide coated at 2.5 μg/mL, BsNb 30 to 5 μg/mL, HRP anti-His detection, OD450

binding result (人CD20胞外区多肽 [1]): binds | binding result (Raji细胞表面CD20蛋白 [2]): binds
B1: sdAb11 (抗CD20单域重链抗体) (VHH)
VHH: DVQLVESGGGLVQPGGSLRLSCTAPGFTSNNCGMDWWRQAAGKQREWVSSIATDGSTSYADSVKGRFTISKDKAKDTVFLQMNSLKPEDTAMYNCAMRRWGWGCLGRLWQSDFGYWGQGTQVTVSS
notes: Expressed in E. coli BL21(DE3) from VHH-pET-25b-SBP and purified on Ni-NTA; also called CD20单域抗体; Anti-CD20 sdAb; not shown: tags from vector pET-25b-SBP (His tag detected with anti-His antibody; SBP)

binding result (Raji细胞表面CD20蛋白 [3]): binds | binding result (人CD20胞外区多肽 [4]): binds
B2: Anti-CD20/CD3 BsNb (bispecific antibody)
chain: EVQLLEEVQLVESGGGLVQPGGSLRLSCAASGFTFDDYGMSWVRQAPGKWLEWVSDISWNGGSTYYADSVKGRFTISRDNAENTLYLQMNSLKPDDTAVYYCAKMGEGGWGANDYWGQGTQVTVSSSGGGGSGGGGSGGGGSMAQVQLQMADVQLVESGGGLVQPGGSLRLSCTAPGFTSNNCGMDWWRQAAGKQREWVSSIATDGSTSYADSVKGRFTISKDKAKDTVFLQMNSLKPEDTAMYNCAMRRWGWGCLGRLWQSDFGYWGQGTQVTVSS
notes: Single chain: anti-CD20 sdAb, linker, anti-CD3 sdAb; also called CD20 sdAb-linker-CD3 sdAb; 抗CD20和CD3双特异性单域抗体
